Where a chain is given by its changes, count along the chain named. *1 amine or outer side, *2 acyl side, *3 side chain or, on linkers, in order; H or OH if unused. Where no end group is shown, it is not given here. Side-chain parts run from the residue outwards. [ ]: non-standard residue; d: D form. The star is where a group is joined. C20 diacid = O=C(O)CCCCCCCCCCCCCCCCCCC(=O)*; C18 diacid = O=C(O)CCCCCCCCCCCCCCCCC(=O)*; γGlu = O=C(O)[C@H](CCC(=O)[*:2])N[*:1]; εLys = N[C@@H](CCCCN[*:1])C(=O)[*:2]; Aib = CC(C)(N)C(=O)O
B1: Compound 85 (peptide)
peptide: YXEGAFTSDYSIXLEKQAQXAFVRHLINKXTRQRY
modifications: Aib at 2, 13, 20, 30; Lys29 epsilon-amino acylated with C18DA-gGlu-gGlu-gGlu-gGlu-gGlu-gGlu-eLys; C-terminal amide
B2: Compound 42 (peptide)
peptide: B1 peptide with A5T, K16Q
modifications: Aib at 2, 13, 20, 30; Lys29 epsilon-amino acylated with C18DA-gGlu-gGlu-gGlu-gGlu-gGlu; C-terminal amide
B3: Compound 54 (peptide)
peptide: B1 peptide with A5E
modifications: Aib at 2, 13, 20, 30; Lys29 epsilon-amino acylated with C18DA-gGlu-gGlu-gGlu-gGlu-gGlu-gGlu-eLys; C-terminal amide
B4: Compound 36 (peptide)
peptide: B1 peptide with A5T, A18E
modifications: Aib at 2, 13, 20, 30; Lys29 epsilon-amino acylated with C18DA-gGlu-gGlu-gGlu-gGlu-gGlu-gGlu-eLys; C-terminal amide
B5: Compound 72 (peptide)
peptide: B1 peptide with A5T
modifications: Aib at 2, 13, 20, 30; ArgMe at 34; Lys29 epsilon-amino acylated with C18DA-gGlu-gGlu-gGlu-gGlu-gGlu-gGlu-eLys; C-terminal amide
B6: Compound 33 (peptide)
peptide: B1 peptide with A5T, E15D, Q17I
modifications: Aib at 2, 13, 20, 30; Lys29 epsilon-amino acylated with C18DA-gGlu-gGlu-gGlu-gGlu-gGlu-gGlu-eLys; C-terminal amide

The binders below were run against T1, human neuropeptide Y2 receptor (human, UniProt P49146 1-381) (assay: cell-based or functional assay).
T1 sequence (looked up): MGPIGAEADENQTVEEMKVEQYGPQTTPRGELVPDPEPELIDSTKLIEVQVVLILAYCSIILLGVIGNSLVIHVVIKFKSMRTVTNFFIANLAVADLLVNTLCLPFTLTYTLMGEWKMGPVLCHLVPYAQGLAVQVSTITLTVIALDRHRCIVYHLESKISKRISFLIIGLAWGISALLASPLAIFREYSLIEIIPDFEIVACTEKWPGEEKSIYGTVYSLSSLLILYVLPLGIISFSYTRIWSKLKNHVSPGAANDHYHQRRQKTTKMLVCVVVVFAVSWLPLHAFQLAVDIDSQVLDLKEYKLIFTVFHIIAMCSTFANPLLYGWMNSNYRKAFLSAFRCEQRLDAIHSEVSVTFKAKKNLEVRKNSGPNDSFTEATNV

In order of rising “EC50, CreLuc reporter, 100% hP” value:
1. B1  16.2 nM
2. B3  38.3 nM
3. Y[Aib]EGTFTSDYSI[Aib]LEKQAQ[Aib]AFVRHLINK([γDab-γGlu-γGlu-γGlu-γGlu-γGlu-γGlu-C20 diacid])[Aib]TRQRY-NH2 [Compound 46]  70.5 nM
4. Y[Aib]EGTFTSDYSI[Aib]LEEQAQ[Aib]AFVRHLINK([εLys-γGlu-γGlu-γGlu-γGlu-γGlu-C18 diacid])[Aib]TRQRY-NH2 [Compound 48]  77.2 nM
5. B4  95.2 nM
6. Y[Aib]EGTFTSDYSI[Aib]LEKQAQ[Aib]AFVRHLINK([γGlu-γGlu-γGlu-γGlu-γGlu-γGlu-C20 diacid])[Aib]TRQRY-NH2 [Compound 3]  147 nM
7. Y[Aib]EGTFTSDYSI[Aib]LEKQAQ[Aib]AFVRHLINK([γGlu-γGlu-εLys-γGlu-γGlu-γGlu-γGlu-C20 diacid])[Aib]TRQRY-NH2 [Compound 52]  152 nM
8. B2  704 nM

In order of falling “EC50, CreLuc reporter, 0.5% hP” value:
1. B2  81.4 nM
2. Y[Aib]EGTFTSDYSI[Aib]LEKQAQ[Aib]AFVRHLINK([γGlu-γGlu-γGlu-γGlu-γGlu-γGlu-C20 diacid])[Aib]TRQRY-NH2 [Compound 3]  37.9 nM
3. B4  30.1 nM
4. Y[Aib]EGTFTSDYSI[Aib]LEKQAQ[Aib]AFVRHLINK([γDab-γGlu-γGlu-γGlu-γGlu-γGlu-γGlu-C20 diacid])[Aib]TRQRY-NH2 [Compound 46]  28.4 nM
5. Y[Aib]EGTFTSDYSI[Aib]LEEQAQ[Aib]AFVRHLINK([εLys-γGlu-γGlu-γGlu-γGlu-γGlu-C18 diacid])[Aib]TRQRY-NH2 [Compound 48]  11.6 nM
6. Y[Aib]EGTFTSDYSI[Aib]LEKQAQ[Aib]AFVRHLINK([εLys-γGlu-γGlu-γGlu-γGlu-γGlu-C20 diacid])[Aib]TRQRY-NH2 [Compound 59]  5.7 nM

What follows are binders tested against human GLP-1 receptor (human, UniProt P43220 24-463) (assay: cell-based or functional assay).

In order of falling “EC50, CreLuc reporter, 0.5% hP” value:
1. B1  10.4 nM
2. Y[Aib]EGTFTSDLSI[Aib]LEKQAQ[Aib]AFVRHLINK([γGlu-γGlu-γGlu-γGlu-γGlu-γGlu-C20 diacid])[Aib]TRQRY-NH2 [Compound 51]  4.5 nM
3. B3  3.4 nM
4. Y[Aib]EGTFTSDYSI[Aib]LEKQAQ[Aib]AFVRHLINK([γGlu-γGlu-εLys-γGlu-γGlu-γGlu-γGlu-C20 diacid])[Aib]TRQRY-NH2 [Compound 52]  3.3 nM
5. Y[Aib]EGTFTSDYSI[Aib]LEKQAQ[Aib]AFVRHLINK([γGlu-γGlu-γGlu-γGlu-γGlu-γGlu-C20 diacid])[Aib]TRQRY-NH2 [Compound 3]  3 nM
6. B2  0.9 nM
7. B5  0.6 nM
8. Y[Aib]EGTFTSDYSI[Aib]LEEQAQ[Aib]AFVRHLINK([εLys-γGlu-γGlu-γGlu-γGlu-γGlu-C18 diacid])[Aib]TRQRY-NH2 [Compound 48]  0.5 nM
9. B6  0.1 nM

In order of falling “EC50, CreLuc reporter, 100% hP” value:
1. B4  16.9 nM
2. Y[Aib]EGTFTSDYSI[Aib]LEKQAQ[Aib]AFVRHLINK([εLys-γGlu-γGlu-γGlu-γGlu-γGlu-C20 diacid])[Aib]TRQRY-NH2 [Compound 59]  16.7 nM
3. Y[Aib]EGTFTSDLSI[Aib]LEKQAQ[Aib]AFVRHLINK([γGlu-γGlu-γGlu-γGlu-γGlu-γGlu-C20 diacid])[Aib]TRQRY-NH2 [Compound 51]  16.3 nM
4. B1  14.5 nM
5. B2  14.5 nM
6. B3  14.4 nM
7. Y[Aib]EGTFTSDYSI[Aib]LEKQAQ[Aib]AFVRHLINK([γGlu-γGlu-γGlu-γGlu-γGlu-γGlu-C20 diacid])[Aib]TRQRY-NH2 [Compound 3]  13.9 nM
8. Y[Aib]EGTFTSDYSI[Aib]LEKQAQ[Aib]EFVRHLINK([γGlu-γGlu-γGlu-γGlu-γGlu-γGlu-C18 diacid])[Aib]TRQRY-NH2 [Compound 56]  7.1 nM
9. Y[Aib]EGTFTSDYSI[Aib]LEKQAQ[Aib]AFVRHLINK([γDab-γGlu-γGlu-γGlu-γGlu-γGlu-γGlu-C20 diacid])[Aib]TRQRY-NH2 [Compound 46]  5.3 nM
10. Y[Aib]EGTFTSDYSI[Aib]LEKQAQ[Aib]AFVRHLINK([γGlu-γGlu-γGlu-γGlu-C18 diacid])[Aib]TRQRY-NH2 [Compound 77]  1.8 nM
11. B6  1 nM

Each binder was assayed against T2, human GIP receptor (human, UniProt P48546 22-466) (assay: cell-based or functional assay).
T2 sequence (looked up): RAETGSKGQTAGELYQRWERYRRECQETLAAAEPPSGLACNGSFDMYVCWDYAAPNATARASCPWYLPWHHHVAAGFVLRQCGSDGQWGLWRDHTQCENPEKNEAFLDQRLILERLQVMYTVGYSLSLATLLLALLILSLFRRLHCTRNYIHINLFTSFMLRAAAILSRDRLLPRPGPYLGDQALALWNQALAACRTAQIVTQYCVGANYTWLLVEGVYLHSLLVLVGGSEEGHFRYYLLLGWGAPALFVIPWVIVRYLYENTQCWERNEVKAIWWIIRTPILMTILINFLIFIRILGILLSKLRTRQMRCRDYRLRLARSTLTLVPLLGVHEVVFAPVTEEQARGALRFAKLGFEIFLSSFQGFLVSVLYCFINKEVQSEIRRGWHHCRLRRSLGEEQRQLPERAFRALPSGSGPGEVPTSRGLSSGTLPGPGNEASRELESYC

In order of rising “EC50, CreLuc reporter, 0.5% hP” value:
1. Y[Aib]EGTFTSDYSI[Aib]LEKQAQ[Aib]EFVRHLINK([γGlu-γGlu-γGlu-γGlu-γGlu-γGlu-C18 diacid])[Aib]TRQRY-NH2 [Compound 56]  0.4 nM
2. Y[Aib]EGTFTSDLSI[Aib]LEKQAQ[Aib]AFVRHLINK([γGlu-γGlu-γGlu-γGlu-γGlu-γGlu-C20 diacid])[Aib]TRQRY-NH2 [Compound 51]  0.5 nM
3. B6  0.7 nM
4. Y[Aib]EGTFTSDYSI[Aib]LEKQAQ[Aib]AFVRHLINK([γGlu-γGlu-γGlu-γGlu-γGlu-γGlu-C20 diacid])[Aib]TRQRY-NH2 [Compound 3]  0.7 nM
5. Y[Aib]EGTFTSDYSI[Aib]LEKQAQ[Aib]AFVRHLINK([γDab-γGlu-γGlu-γGlu-γGlu-γGlu-γGlu-C20 diacid])[Aib]TRQRY-NH2 [Compound 46]  0.8 nM
6. B4  8.8 nM

In order of falling “EC50, CreLuc reporter, 100% hP” value:
1. B4  41.4 nM
2. Y[Aib]EGTFTSDYSI[Aib]LEKQAQ[Aib]EFVRHLINK([γGlu-γGlu-γGlu-γGlu-γGlu-γGlu-C18 diacid])[Aib]TRQRY-NH2 [Compound 56]  19.3 nM
3. B6  18.7 nM
4. Y[Aib]EGTFTSDLSI[Aib]LEKQAQ[Aib]AFVRHLINK([γGlu-γGlu-γGlu-γGlu-γGlu-γGlu-C20 diacid])[Aib]TRQRY-NH2 [Compound 51]  13.8 nM
5. Y[Aib]EGTFTSDYSI[Aib]LEKQAQ[Aib]AFVRHLINK([γDab-γGlu-γGlu-γGlu-γGlu-γGlu-γGlu-C20 diacid])[Aib]TRQRY-NH2 [Compound 46]  7.2 nM

Source: patent US20250382344A1, “Soluble GLP1/GIP/NPY2 Receptor Triple Agonists” (Boehringer Ingelheim International GmH, priority 2024, published 2025)
